Data as given in patent US20110300138A1 (published 2011).
Blank lines part the entries; values can stand above or below the molecule they belong to.

Tests used:
[1] = target: TSHR260-alkaline phosphatase (TSHR260-AP) (human) (UniProt P05187); assay: TSHR260-AP bridge ELISA, full length TSHR on wells; 10 µg/mL, diluted in assay buffer
[2] = target: TSHR260-alkaline phosphatase (TSHR260-AP) (human) (UniProt P05187); assay: TSHR260-AP bridge ELISA, full length TSHR on wells; 250 µg/mL, diluted in HBD
[3] = target: TSHR260-alkaline phosphatase (TSHR260-AP) (human) (UniProt P05187); assay: TSHR260-AP bridge ELISA, full length TSHR on wells; 0.1 µg/mL, diluted in assay buffer
[4] = target: TSHR260-alkaline phosphatase (TSHR260-AP) (human) (UniProt P05187); assay: TSHR260-AP bridge ELISA, full length TSHR on wells; 0.005 µg/mL, diluted in assay buffer
[5] = target: TSHR260-alkaline phosphatase (TSHR260-AP) (human) (UniProt P05187); assay: TSHR260-AP bridge ELISA, full length TSHR on wells; 10 µg/mL, diluted in HBD
[6] = target: TSHR260-alkaline phosphatase (TSHR260-AP) (human) (UniProt P05187); assay: TSHR260-AP bridge ELISA, full length TSHR on wells; 0.1 µg/mL, diluted in HBD
[7] = target: TSHR260-alkaline phosphatase (TSHR260-AP) (human) (UniProt P05187); assay: TSHR260-AP bridge ELISA, full length TSHR on wells; 250 µg/mL, diluted in assay buffer
[8] = target: TSHR260-alkaline phosphatase (TSHR260-AP) (human) (UniProt P05187); assay: TSHR260-AP bridge ELISA, full length TSHR on wells; 0.005 µg/mL, diluted in HBD
[9] = target: T1, human TSH receptor (full length), coated on tubes (human, UniProt P16473 22-764); assay: competition with 125I-K1-18 IgG on TSHR coated tubes; 10 µg/mL, diluted in HBD serum pool
T1 construct: TSHR coated tubes as described in WO2004/050708A2; Exact preparation on the tubes is not detailed here; also called thyroid stimulating hormone receptor
Description: (§1) Binding inhibition assays were carried out using TSHR coated tubes as described in WO2004/050708A2. […] After aspiration, the tubes were washed and 100 μL of ¹²⁵I-labelled protein (5×10⁴ cpm) added and incubated for 1 hour at room temperature with shaking. The tubes were then aspirated, washed and counted in a gamma counter. Inhibition of labelled protein binding was calculated as 100×[1−(cpm bound in the presence of test material/cpm bound in the presence of control material)].

[10] = target: T1, human TSH receptor (full length), …; assay: competition with 125I-K1-18 IgG on TSHR coated tubes; 100 µg/mL, diluted in assay buffer
Description: as §1

[11] = target: T1, human TSH receptor (full length), …; assay: competition with 125I-K1-18 IgG on TSHR coated tubes; 3 µg/mL, diluted in HBD serum pool
Description: as §1

[12] = target: T1, human TSH receptor (full length), …; assay: competition with 125I-K1-18 IgG on TSHR coated tubes; 0.001 µg/mL, diluted in HBD serum pool
Description: as §1

[13] = target: T1, human TSH receptor (full length), …; assay: competition with 125I-K1-18 IgG on TSHR coated tubes; 1 µg/mL, diluted in HBD serum pool
Description: as §1

[14] = target: T1, human TSH receptor (full length), …; assay: competition with 125I-K1-18 IgG on TSHR coated tubes; 100 µg/mL, diluted in HBD serum pool
Description: as §1

[15] = target: T1, human TSH receptor (full length), …; assay: competition with 125I-K1-18 IgG on TSHR coated tubes; 0.1 µg/mL, diluted in assay buffer
Description: as §1

[16] = target: T1, human TSH receptor (full length), …; assay: competition with 125I-K1-18 IgG on TSHR coated tubes; 10 µg/mL, diluted in assay buffer
Description: as §1

[17] = target: T1, human TSH receptor (full length), …; assay: competition with 125I-K1-18 IgG on TSHR coated tubes; 0.01 µg/mL, diluted in HBD serum pool
Description: as §1

[18] = target: T1, human TSH receptor (full length), …; assay: competition with 125I-K1-18 IgG on TSHR coated tubes; 30 µg/mL, diluted in assay buffer
Description: as §1

[19] = target: T1, human TSH receptor (full length), …; assay: competition with 125I-K1-18 IgG on TSHR coated tubes; 0.3 µg/mL, diluted in assay buffer
Description: as §1

[20] = target: T1, human TSH receptor (full length), …; assay: competition with 125I-K1-18 IgG on TSHR coated tubes; 30 µg/mL, diluted in HBD serum pool
Description: as §1

[21] = target: T1, human TSH receptor (full length), …; assay: competition with 125I-K1-18 IgG on TSHR coated tubes; 0.03 µg/mL, diluted in assay buffer
Description: as §1

[22] = target: T1, human TSH receptor (full length), …; assay: competition with 125I-K1-18 IgG on TSHR coated tubes; 0.01 µg/mL, diluted in assay buffer
Description: as §1

[23] = target: T1, human TSH receptor (full length), …; assay: competition with 125I-K1-18 IgG on TSHR coated tubes; 1 µg/mL, diluted in assay buffer
Description: as §1

[24] = target: T1, human TSH receptor (full length), …; assay: competition with 125I-K1-18 IgG on TSHR coated tubes; 0.003 µg/mL, diluted in assay buffer
Description: as §1

[25] = target: T1, human TSH receptor (full length), …; assay: competition with 125I-K1-18 IgG on TSHR coated tubes; 0.001 µg/mL, diluted in assay buffer
Description: as §1

[26] = target: T1, human TSH receptor (full length), …; assay: competition with 125I-K1-18 IgG on TSHR coated tubes; 0.1 µg/mL, diluted in HBD serum pool
Description: as §1

[27] = target: T1, human TSH receptor (full length), …; assay: competition with 125I-K1-18 IgG on TSHR coated tubes; 0.3 µg/mL, diluted in HBD serum pool
Description: as §1

[28] = target: T1, human TSH receptor (full length), …; assay: competition with 125I-K1-18 IgG on TSHR coated tubes; 3 µg/mL, diluted in assay buffer
Description: as §1

[29] = target: T1, human TSH receptor (full length), …; assay: competition with 125I-K1-18 IgG on TSHR coated tubes; 0.003 µg/mL, diluted in HBD serum pool
Description: as §1

[30] = target: T1, human TSH receptor (full length), …; assay: competition with 125I-K1-18 IgG on TSHR coated tubes; 0.03 µg/mL, diluted in HBD serum pool
Description: as §1

B1: K1-18 IgG (antibody, V domains shown)
VH: EVQLVQSGAEVKKPGESLKISCKGSGYSFTNYWIGWVRQMPGKGLEWMGIIYPYDSDTRYSPSFEGQVTISADKSIRTAYLHWSSLKASDTAMYYCVRPRDGSYPYDAFDIWGQGTMVTVSS
VL: EIVLTQSPGTLSLSPGERATLSCRASQSVSNNYLAWYQQKPGQAPRLLIYGASSRATGIPDRFSGSGSGTDFTLTISRLEPEDFAVYYCQHCGSSLRAFGQGTKVEIKR
Inhibition of binding (%) [9]: 94% | Inhibition of binding (%) [10]: 94.5% | Inhibition of binding (%) [11]: 94% | Inhibition of binding (%) [12]: 2.7% | Inhibition of binding (%) [13]: 91.1% | Inhibition of binding (%) [14]: 96.1% | Inhibition of binding (%) [15]: 78.9% | Inhibition of binding (%) [16]: 92.5% | Inhibition of binding (%) [17]: 5.8% | Inhibition of binding (%) [18]: 93.8% | Inhibition of binding (%) [19]: 90.9% | Inhibition of binding (%) [20]: 95.6% | Inhibition of binding (%) [21]: 39.3% | Inhibition of binding (%) [22]: 14.9% | Inhibition of binding (%) [23]: 92.8% | Inhibition of binding (%) [24]: 2.9% | Inhibition of binding (%) [25]: 6.9% | Inhibition of binding (%) [26]: 49.4% | Inhibition of binding (%) [27]: 78.3% | Inhibition of binding (%) [28]: 93% | Inhibition of binding (%) [29]: -0.3% | Inhibition of binding (%) [30]: 15.1%

B2: K1-18 Fab (Fab, V domains shown)
VH: B1 VH
VL: B1 VL
Inhibition of binding (%) [9]: 83% | Inhibition of binding (%) [10]: 86.2% | Inhibition of binding (%) [11]: 83.4% | Inhibition of binding (%) [12]: -1% | Inhibition of binding (%) [13]: 80.2% | Inhibition of binding (%) [14]: 84.8% | Inhibition of binding (%) [15]: 56.7% | Inhibition of binding (%) [16]: 81.8% | Inhibition of binding (%) [17]: 1.8% | Inhibition of binding (%) [18]: 83% | Inhibition of binding (%) [19]: 71.1% | Inhibition of binding (%) [20]: 85% | Inhibition of binding (%) [21]: 24.8% | Inhibition of binding (%) [22]: 8.8% | Inhibition of binding (%) [23]: 77.5% | Inhibition of binding (%) [24]: 0.8% | Inhibition of binding (%) [25]: -2.6% | Inhibition of binding (%) [26]: 39% | Inhibition of binding (%) [27]: 65.5% | Inhibition of binding (%) [28]: 81.9% | Inhibition of binding (%) [29]: 1% | Inhibition of binding (%) [30]: 10.3%

B4: K1-70 Fab (Fab, V domains shown)
VH: EVQLVQSGAEVKKPGQSLKISCKASGYSLTDNWIGWVRQKPGKGLEWMGIIYPGDSDTRYSPSFQGQVTISADKSINTAYLQWSSLKASDTAIYYCVGLDWNYNPLRYWGPGTLVTVSS
VL: QSVLTQPPSVSAAPGQKVTISCSGSSSDIGSNYVSWYQQFPGTAPKLLIYDNNKRPSAIPDRFSGSKSGTSATLGITGLQTGDEADYYCGTWDSRLGIAVFGGGTQLTVLG
Inhibition of binding (%) [9]: 92.6% | Inhibition of binding (%) [10]: 93.3% | Inhibition of binding (%) [11]: 92.8% | Inhibition of binding (%) [12]: -3.2% | Inhibition of binding (%) [13]: 92.1% | Inhibition of binding (%) [14]: 92.5% | Inhibition of binding (%) [15]: 87.6% | Inhibition of binding (%) [16]: 92.4% | Inhibition of binding (%) [17]: 16.2% | Inhibition of binding (%) [18]: 92.2% | Inhibition of binding (%) [19]: 89.6% | Inhibition of binding (%) [20]: 91.8% | Inhibition of binding (%) [21]: 68.8% | Inhibition of binding (%) [22]: 25.6% | Inhibition of binding (%) [23]: 91% | Inhibition of binding (%) [24]: 4.1% | Inhibition of binding (%) [25]: -3.9% | Inhibition of binding (%) [26]: 75.2% | Inhibition of binding (%) [27]: 88.1% | Inhibition of binding (%) [28]: 91.1% | Inhibition of binding (%) [29]: 3.7% | Inhibition of binding (%) [30]: 35%

Next, values leading:

Mean absorbance at 405 nm (absorbance at 405 nm) [1]: 0.016 | Mean absorbance at 405 nm (absorbance at 405 nm) [2]: -0.008 | Mean absorbance at 405 nm (absorbance at 405 nm) [3]: -0.009 | Mean absorbance at 405 nm (absorbance at 405 nm) [4]: 0 | Mean absorbance at 405 nm (absorbance at 405 nm) [5]: -0.008 | Mean absorbance at 405 nm (absorbance at 405 nm) [6]: -0.009 | Mean absorbance at 405 nm (absorbance at 405 nm) [7]: 0.204 | Mean absorbance at 405 nm (absorbance at 405 nm) [8]: -0.012
Molecule: 5C9 Fab

Inhibition of binding (%) [9]: 95.1% | Inhibition of binding (%) [10]: 94.5% | Inhibition of binding (%) [11]: 94.1% | Inhibition of binding (%) [12]: 0% | Inhibition of binding (%) [13]: 92.9% | Inhibition of binding (%) [14]: 95.3% | Inhibition of binding (%) [15]: 89.2% | Inhibition of binding (%) [16]: 91.9% | Inhibition of binding (%) [17]: 6.1% | Inhibition of binding (%) [18]: 93.1% | Inhibition of binding (%) [19]: 91.5% | Inhibition of binding (%) [20]: 93.9% | Inhibition of binding (%) [21]: 45.6% | Inhibition of binding (%) [22]: 6.8% | Inhibition of binding (%) [23]: 92% | Inhibition of binding (%) [24]: 0.1% | Inhibition of binding (%) [25]: -1.7% | Inhibition of binding (%) [26]: 55.6% | Inhibition of binding (%) [27]: 82.2% | Inhibition of binding (%) [28]: 92.9% | Inhibition of binding (%) [29]: 2.1% | Inhibition of binding (%) [30]: 17.8%
B3: K1-70 IgG (antibody, V domains shown)
VH: B4 VH
VL: B4 VL
